US8962697

Key:
LAR-7022 = system: T1, LAR-7022
T1 sequence: ADDIGTSRPQE

LAR-7047 = system: T2, LAR-7047
T2 sequence: VFFRRQTA

LAR-7048 = system: T3, LAR-7048
T3 sequence: PRRICV

Substance: Staphopain A and Staphopain B
- hydrolysis of the peptide substrate, fragments by mass spectrometry (LAR-7022): Degradation of LAR-7022 (b-ADDIG-TSRPQE): 1188.56 amu produced specific fragment pick: 717.37 corresponding to TSRPQE sequence
- degradation of the control peptide (LAR-7047): No degradation was observed in these systems
- degradation of the control peptide (LAR-7048): No degradation was observed in these systems
